Laboratory results published in PMC3746069 (FEBS letters, 2013).
Each block holds one binder with its values, some of them ahead of it.

B3: Outer arm dynein intermediate chain 2 with C-terminal 6xHis (IC2-6xHis) (natural protein, Chlamydomonas reinhardtii, UniProt P27766 1-567, looked up)
chain: MEIYHQYIKLRKQFGRFPKFGDEGSEMLADIRPNEDHGKEYIPRNPVTTVTQCVPEMSEHEANTNAVILVNKAMSHVEGGWPKDVDYTEAEHTIRYRKKVEKDEDYIRTVVQLGSSVEDLIKQNNAVDIYQEYFTNVTMDHTSEAPHVKTVTVFKDPNNIKRSASYVNWHPDGSVPKVVVAYSILQFQQQPAGMPLSSYIWDVNNPNTPEYEMVPTSQICCAKFNLKDNNLVGAGQYNGQLAYFDVRKGNGPVEATPIDISHRDPIYDFAWLQSKTGTECMTVSTDGNVLWWDLRKMNECVENMPLKEKNSETTVGGVCLEYDTNAGPTNFMVGTEQGQIFSCNRKAKNPVDRVKYVLSGHHGPIYGLRRNPFNSKYFLSIGDWTARVWVEDTAVKTPILTTKYHPTYLTGGTWSPSRPGVFFTIKMDGAMDVWDLYYKHNEPTLTVQVSDLALTAFAVQESGGTVAVGTSDGCTSVLQLSTGLSEASPAEKANINAMFERETTREKNLEKAIKEAKVKARKEQGRRDEVKDNVTEEQLKALEDEFFKTTDPAVGGGYGAGEGAAAE

Key:
[1] = target: B3; test: pull-down
[2] = target: T1, Outer dynein arm docking complex subunit DC2 with C-terminal 6xHis (DC2-6xHis) (Chlamydomonas reinhardtii, UniProt A8JF70 1-552); test: pull-down
T1 sequence (looked up): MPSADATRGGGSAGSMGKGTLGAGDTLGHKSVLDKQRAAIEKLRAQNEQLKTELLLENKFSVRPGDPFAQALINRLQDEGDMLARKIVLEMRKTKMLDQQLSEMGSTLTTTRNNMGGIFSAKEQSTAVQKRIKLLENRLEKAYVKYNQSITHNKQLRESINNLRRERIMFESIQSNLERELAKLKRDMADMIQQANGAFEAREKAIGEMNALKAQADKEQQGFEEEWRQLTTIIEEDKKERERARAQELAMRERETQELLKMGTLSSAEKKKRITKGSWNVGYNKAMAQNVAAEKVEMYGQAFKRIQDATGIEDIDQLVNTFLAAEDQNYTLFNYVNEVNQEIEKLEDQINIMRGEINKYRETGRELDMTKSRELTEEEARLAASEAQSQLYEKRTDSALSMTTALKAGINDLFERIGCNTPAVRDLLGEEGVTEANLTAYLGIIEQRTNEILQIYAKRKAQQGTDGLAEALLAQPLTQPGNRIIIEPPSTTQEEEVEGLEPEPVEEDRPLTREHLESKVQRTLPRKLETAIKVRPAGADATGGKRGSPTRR

[3] = target: T2, Outer arm dynein intermediate chain 1 with N-terminal 6xHis (His-IC1) (Chlamydomonas reinhardtii, UniProt Q39578 1-683); test: co-IP
T2 sequence (looked up): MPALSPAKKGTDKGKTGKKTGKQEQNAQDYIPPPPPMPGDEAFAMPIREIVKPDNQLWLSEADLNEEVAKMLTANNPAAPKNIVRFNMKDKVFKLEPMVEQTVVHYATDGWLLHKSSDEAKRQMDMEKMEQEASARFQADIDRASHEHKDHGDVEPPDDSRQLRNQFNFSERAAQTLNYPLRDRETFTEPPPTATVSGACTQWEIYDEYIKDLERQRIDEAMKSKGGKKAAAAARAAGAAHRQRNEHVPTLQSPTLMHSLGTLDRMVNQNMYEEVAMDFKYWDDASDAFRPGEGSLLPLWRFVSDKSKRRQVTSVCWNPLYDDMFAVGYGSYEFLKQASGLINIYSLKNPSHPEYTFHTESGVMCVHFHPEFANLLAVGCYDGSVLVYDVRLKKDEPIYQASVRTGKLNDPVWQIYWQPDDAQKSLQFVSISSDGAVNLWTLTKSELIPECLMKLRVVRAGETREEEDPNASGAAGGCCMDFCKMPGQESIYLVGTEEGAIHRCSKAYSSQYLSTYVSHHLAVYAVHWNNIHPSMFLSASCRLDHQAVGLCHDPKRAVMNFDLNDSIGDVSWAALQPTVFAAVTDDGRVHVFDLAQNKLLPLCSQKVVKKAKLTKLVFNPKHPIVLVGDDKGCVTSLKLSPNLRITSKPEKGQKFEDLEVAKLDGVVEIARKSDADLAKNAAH

- stoichiometry N [1]: 1 IC1:IC2
B1: Outer arm dynein intermediate chain 1 (IC1), not tagged (natural protein, Chlamydomonas reinhardtii, UniProt Q39578 1-683, looked up)
chain: MPALSPAKKGTDKGKTGKKTGKQEQNAQDYIPPPPPMPGDEAFAMPIREIVKPDNQLWLSEADLNEEVAKMLTANNPAAPKNIVRFNMKDKVFKLEPMVEQTVVHYATDGWLLHKSSDEAKRQMDMEKMEQEASARFQADIDRASHEHKDHGDVEPPDDSRQLRNQFNFSERAAQTLNYPLRDRETFTEPPPTATVSGACTQWEIYDEYIKDLERQRIDEAMKSKGGKKAAAAARAAGAAHRQRNEHVPTLQSPTLMHSLGTLDRMVNQNMYEEVAMDFKYWDDASDAFRPGEGSLLPLWRFVSDKSKRRQVTSVCWNPLYDDMFAVGYGSYEFLKQASGLINIYSLKNPSHPEYTFHTESGVMCVHFHPEFANLLAVGCYDGSVLVYDVRLKKDEPIYQASVRTGKLNDPVWQIYWQPDDAQKSLQFVSISSDGAVNLWTLTKSELIPECLMKLRVVRAGETREEEDPNASGAAGGCCMDFCKMPGQESIYLVGTEEGAIHRCSKAYSSQYLSTYVSHHLAVYAVHWNNIHPSMFLSASCRLDHQAVGLCHDPKRAVMNFDLNDSIGDVSWAALQPTVFAAVTDDGRVHVFDLAQNKLLPLCSQKVVKKAKLTKLVFNPKHPIVLVGDDKGCVTSLKLSPNLRITSKPEKGQKFEDLEVAKLDGVVEIARKSDADLAKNAAH

- stoichiometry N [2]: 1 DC1:DC2
B2: Outer dynein arm docking complex subunit DC1, not tagged (natural protein)
chain: not shown

Binder: B3
- binding result [3]: binds
